Experiment [1] addresses T1, cynomolgus monkey MerTK (cynomolgus monkey, UniProt A0A2K5V1H9 32-505).
T1 construct: Soluble analyte in SPR; also called Cyno MerTK
T1 sequence: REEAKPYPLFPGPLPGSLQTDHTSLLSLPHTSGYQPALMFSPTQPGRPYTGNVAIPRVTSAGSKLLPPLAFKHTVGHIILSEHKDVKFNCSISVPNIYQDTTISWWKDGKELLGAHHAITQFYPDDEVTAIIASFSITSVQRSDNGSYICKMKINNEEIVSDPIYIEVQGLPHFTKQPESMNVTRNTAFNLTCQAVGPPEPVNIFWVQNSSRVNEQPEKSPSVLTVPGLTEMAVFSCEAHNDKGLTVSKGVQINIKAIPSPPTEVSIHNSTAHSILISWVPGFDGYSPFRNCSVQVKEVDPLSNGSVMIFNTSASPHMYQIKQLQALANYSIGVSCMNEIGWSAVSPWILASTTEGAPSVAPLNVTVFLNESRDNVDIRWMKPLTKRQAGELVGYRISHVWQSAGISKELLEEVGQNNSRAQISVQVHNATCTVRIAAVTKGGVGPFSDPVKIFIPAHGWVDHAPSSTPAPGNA
Briefly: SPR BIAcore T200, Ab captured, 37C. Here is the method: (§1) All binding affinity determinations were obtained using Surface Plasmon Resonance (SPR) measurements from a BIAcore™-T200 instrument. Briefly, each rabbit or humanized antibody was captured to achieve approximately 100 RU (Response Units). Then, 3-fold serial dilutions of MerTK from various species (0.4 nM to 100 nM) diluted in HBS-EP buffer (0.01M HEPES pH 7.4, 0.15M NaCl, 3 mM EDTA and 0.05% v/v surfactant P20) was injected into the BIAcore™-T200 instrument at 25° C. or 37° C. with a flow rate of 30 μl/min. Association rates (kₒₙ) and dissociation rates (koff) were calculated using a simple one-to-one Langmuir binding model (BIAcore T200 evaluation software version 2.0). The equilibrium dissociation constant (KD) was calculated as the ratio koff/kₒₙ.

Experiment [2] addresses T2, rat MerTK (rat, UniProt P57097 23-496, limits assumed).
T2 construct: Soluble analyte in SPR
T2 sequence (looked up): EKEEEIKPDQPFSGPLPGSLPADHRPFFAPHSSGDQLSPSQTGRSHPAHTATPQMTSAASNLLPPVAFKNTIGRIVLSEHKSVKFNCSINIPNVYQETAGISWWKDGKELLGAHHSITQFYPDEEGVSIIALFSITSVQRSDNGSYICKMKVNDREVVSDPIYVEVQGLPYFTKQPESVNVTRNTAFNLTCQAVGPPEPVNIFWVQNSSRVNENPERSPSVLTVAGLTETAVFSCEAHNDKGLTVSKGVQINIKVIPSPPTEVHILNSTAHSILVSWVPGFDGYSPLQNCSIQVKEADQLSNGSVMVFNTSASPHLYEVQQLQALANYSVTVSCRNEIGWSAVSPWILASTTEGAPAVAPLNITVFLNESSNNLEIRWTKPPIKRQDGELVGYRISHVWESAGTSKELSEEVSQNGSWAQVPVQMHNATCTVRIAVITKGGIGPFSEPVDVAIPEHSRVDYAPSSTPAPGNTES
Briefly: SPR BIAcore T200, Ab captured, 37C. Here is the method: as §1
For orientation: SPR reads the build-up and loss of mass on a sensor chip optically.

Experiment [3] concerns the target T3, human MerTK (human, UniProt Q12866 26-499).
T3 construct: also called HuMER
T3 sequence: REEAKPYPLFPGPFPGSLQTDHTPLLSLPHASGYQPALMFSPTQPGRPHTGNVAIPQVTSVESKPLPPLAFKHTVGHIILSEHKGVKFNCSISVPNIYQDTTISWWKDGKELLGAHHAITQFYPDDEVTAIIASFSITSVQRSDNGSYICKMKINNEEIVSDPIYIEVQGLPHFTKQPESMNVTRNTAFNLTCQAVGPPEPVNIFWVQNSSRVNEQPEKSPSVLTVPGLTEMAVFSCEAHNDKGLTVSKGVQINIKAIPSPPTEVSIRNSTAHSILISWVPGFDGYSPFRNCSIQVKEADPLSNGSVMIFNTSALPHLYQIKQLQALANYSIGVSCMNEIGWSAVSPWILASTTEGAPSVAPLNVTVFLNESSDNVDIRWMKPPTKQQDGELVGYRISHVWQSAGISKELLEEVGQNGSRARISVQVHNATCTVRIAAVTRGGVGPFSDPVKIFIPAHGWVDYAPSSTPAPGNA
The experiment in a line: SPR BIAcore T200, Ab captured, 37C. The method, then: as §1

Experiment [4] has as its target T4, mouse MerTK (mouse, UniProt Q60805 23-496).
T4 construct: also called MuMER
T4 sequence (looked up): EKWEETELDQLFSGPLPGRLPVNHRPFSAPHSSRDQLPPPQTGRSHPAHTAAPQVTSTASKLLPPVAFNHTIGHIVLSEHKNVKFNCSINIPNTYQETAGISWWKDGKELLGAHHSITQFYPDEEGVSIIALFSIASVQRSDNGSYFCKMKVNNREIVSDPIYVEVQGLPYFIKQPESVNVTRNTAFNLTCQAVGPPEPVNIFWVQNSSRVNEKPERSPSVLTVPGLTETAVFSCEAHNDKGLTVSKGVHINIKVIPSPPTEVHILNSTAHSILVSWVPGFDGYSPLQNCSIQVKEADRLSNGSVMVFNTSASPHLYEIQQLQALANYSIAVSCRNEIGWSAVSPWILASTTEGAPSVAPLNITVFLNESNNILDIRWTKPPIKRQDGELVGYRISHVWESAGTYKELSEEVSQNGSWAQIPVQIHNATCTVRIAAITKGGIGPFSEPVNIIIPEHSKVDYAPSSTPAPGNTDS
Briefly: SPR BIAcore T200, Ab captured, 37C. The method, then:
as §1

Experiment [5] concerns the target T5, human MerTK on human macrophages (human, UniProt Q12866 21-999).
T5 sequence: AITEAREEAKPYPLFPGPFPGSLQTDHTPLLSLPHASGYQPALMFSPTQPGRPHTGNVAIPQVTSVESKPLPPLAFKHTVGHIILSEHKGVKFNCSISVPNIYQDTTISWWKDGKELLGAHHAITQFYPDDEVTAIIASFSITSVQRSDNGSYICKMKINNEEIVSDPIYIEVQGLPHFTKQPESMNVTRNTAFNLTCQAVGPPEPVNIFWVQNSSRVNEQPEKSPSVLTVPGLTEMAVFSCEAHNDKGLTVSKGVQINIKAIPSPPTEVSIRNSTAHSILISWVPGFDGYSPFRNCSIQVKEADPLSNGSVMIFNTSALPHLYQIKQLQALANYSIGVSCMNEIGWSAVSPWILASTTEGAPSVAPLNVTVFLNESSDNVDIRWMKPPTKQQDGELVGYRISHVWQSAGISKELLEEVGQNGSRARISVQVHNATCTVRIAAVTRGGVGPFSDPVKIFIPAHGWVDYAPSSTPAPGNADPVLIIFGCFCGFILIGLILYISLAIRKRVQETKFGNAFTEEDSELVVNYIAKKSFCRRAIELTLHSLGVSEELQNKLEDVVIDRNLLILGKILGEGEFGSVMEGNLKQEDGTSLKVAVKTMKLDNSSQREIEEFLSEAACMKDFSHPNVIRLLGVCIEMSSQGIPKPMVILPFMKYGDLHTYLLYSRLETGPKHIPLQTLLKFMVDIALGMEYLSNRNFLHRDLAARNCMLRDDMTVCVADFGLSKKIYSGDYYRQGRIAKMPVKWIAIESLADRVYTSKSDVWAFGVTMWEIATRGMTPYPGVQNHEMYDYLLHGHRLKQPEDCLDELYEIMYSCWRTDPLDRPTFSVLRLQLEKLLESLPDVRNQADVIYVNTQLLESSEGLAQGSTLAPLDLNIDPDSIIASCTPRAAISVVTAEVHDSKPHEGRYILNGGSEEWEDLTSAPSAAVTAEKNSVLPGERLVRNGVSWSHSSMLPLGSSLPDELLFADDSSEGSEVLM
Briefly: cell-based or functional assay.

Experiment [6] has as its target T1, cynomolgus monkey MerTK. Briefly: SPR BIAcore T200, Ab captured, 25C. The method, then: as §1
The target of experiment [7] is T3, human MerTK. The experiment in a line: SPR BIAcore T200, Ab captured, 25C. Here is the method:
as §1

In experiment [8] the target is T4, mouse MerTK. Briefly: SPR BIAcore T200, Ab captured, 25C. Here is the method: as §1
Experiment [9] concerns the target T6, HuMER (R26-A499) (human, UniProt Q12866 26-499).
T6 construct: Extracellular domain with both Ig-like and both fibronectin-like domains; also called human MerTK extracellular domain
T6 sequence: T3 sequence
The experiment in a line: SPR BIAcore T200, Ab captured, 25C. Here is the method: (§2) Binding affinity determinations were obtained using Surface Plasmon Resonance (SRP) measurements from a BIAcore™-T200 instrument. Briefly, each rabbit antibody was captured to achieve approximately 100 RU (Response Units). Then, 3-fold serial dilutions of the various MerTK domains (0.4 nM to 100 nM) diluted in HBS-EP buffer (0.01M HEPES pH 7.4, 0.15M NaCl, 3 mM EDTA and 0.05% v/v surfactant P20) was injected into the BIAcore™-T200 instrument at 25° C. or 37° C. with a flow rate of 30 μl/min. Association rates (kₒₙ) and dissociation rates (koff) were calculated using a simple one-to-one Langmuir binding model (BIAcore T200 evaluation software version 2.0). The equilibrium dissociation constant (KD) was calculated as the ratio koff/kₒₙ.
(§3) Antibody epitope determination was assessed by BIAcore analysis for rabbit antibodies binding against both the human and mouse MerTK extracellular domain (HuMER R26-A499 and MuMER E23-S496), Ig1&2 domain, Ig1-only domain, and Ig2-only domain (TABLE 18). Human MerTK and its domains are shown in light gray, while mouse MerTK and its domains are shown in dark gray.

Experiment [10] addresses T7, MuMER (E23-S496) (mouse, UniProt Q60805 23-496).
T7 construct: range 23-496; also called mouse MerTK extracellular domain
T7 sequence (looked up): T4 sequence (looked up)
Briefly: SPR BIAcore T200, Ab captured, 25C. The method, then: as §2, §3

B1: h10C3.v14 (antibody, V domains shown)
VH: EVQLVESGGGLVQPGGSLRLSCAASGFSLSGYTMGWVRQAPGKGLEYIGVISSGGTTYYTNWAKGRFTISKDNSKNTLYLQMGSLRAEDMAVYYCARVAFTAYGGGGFPTLHRLDLWGQGTLVTVSS
VL: DQVLTQSPDSLAVSLGERATINCQSSESVYNNDYLAWYQQKPGQPPKLLIYSASTLASGVPDRFSGSGSGTDFTLTISSLQAEDVAVYYCAGGYLGNNVFGGGTKVEIK
notes: Humanized, human IgG1; also called 10C3 Humanized polished mAb
B1 yielded a dissociation constant (Kd) in experiment [1] of 3.2 nM. Further, the affinity in [2], expressed as Kd, was 2.4 nM. Also, in experiment [3], the Kd was found to be 6.9 nM. This molecule yielded a Kd in experiment [4] of 0.9 nM. Moreover, in experiment [5], the “IC50 (nM), efferocytosis by human macrophages, Average (3 Donors)” value was found to be 0.95 nM; the “IC50 (nM), efferocytosis by human macrophages, Donor A” value was found to be 0.52 nM; the “IC50 (nM), efferocytosis by human macrophages, Donor B” value was 1.2 nM; the “IC50 (nM), efferocytosis by human macrophages, Donor C” value is 1.2 nM. Further, in experiment [5], the “Max Inhibition (%), efferocytosis by human macrophages, Average (3 Donors)” value stood at 61%; the “Max Inhibition (%), efferocytosis by human macrophages, Donor A” value is 64%; the “Max Inhibition (%), efferocytosis by human macrophages, Donor B” value came out at 58%; the “Max Inhibition (%), efferocytosis by human macrophages, Donor C” value is 62%.

B2: Rbt9E3.FN (antibody, V domains shown)
VH: QSVEESGGRLVTPGTPLTLTCTVSGFSLSSNAMSWVRQAPGKGLEWIGIISSSGSTYSASWAKGRFTISKTSTTMDLKITSPTTEDTATYFCARVGFFVGYGAYDYGIIHRLDLWGQGTLVTVSS
VL: AAVLTQTPSPVSAAVGGTVSISCQSSKSIYNNNWLSWYQQKPGQPPKLLIYDASDLASGVPSRFEGSGSGTEFTLTISDLECDDAATYYCAGGYSGDSDYAFGGGTEVVVK
notes: Recombinant rabbit monoclonal antibody, Expi293, protein A purified
For the molecule B2, the dissociation constant (Kd) in experiment [1] worked out at 2.5 nM; in experiment [2] it was 1.7 nM; in experiment [3] it was 5.1 nM; in [4] it was 0.6 nM; in experiment [6] it was 2.5 nM; in experiment [7] it was 2.6 nM. Besides, the Kd amounted to 0.6 nM in experiment [8], 2.6 nM in [9] and 0.6 nM in experiment [10].

B3: Rbt10F7 (antibody, V domains shown)
VH: QSVEESGGRLVTPGTPLTLTCTVSGFSLSGYAMSWVRQAPGKGLEYIGVISSSGSSYYPSWAKGRFTISKTSTTVDLQITSPTTEDTATYFCARVQFYVGYAVYGYGIIDRLDLWGQGTLVTVSS
VL: AAVLTQTPSPVSATMGGTVSISCQSSKSVYNNNWLSWYQQKPGQPPKLLIYRASTLESGVPSRFKGSGSGTQFTLTISDVHCDDAATYFCAGGYSSSSSANAFGGGTEVVVK
notes: as for B2
Regarding B3, the equilibrium dissociation constant (Kd) was 5.1 nM in experiment [1]; 5.8 nM in experiment [2]; 10.9 nM in [3]; 2.4 nM in experiment [4]; 4.7 nM in experiment [6]; 7 nM in [7]. Besides, the Kd worked out at 4.1 nM in [8], 7 nM in experiment [9] and 4.1 nM in experiment [10].

The Kd is the concentration at which binding is half-saturated.

The values are drawn from patent publication US20220135701A1 (Genentech, published 2022).
